According to the supplement of paper PMC10724198:
± gives the standard deviation of the averaged measurements.

Tests used:
[1] = test system: Saccharomyces cerevisiae; assay: protein stability index of tFT-peptide fusion (C-terminal peptide) (PSI (0-1 scale)); higher = more stable (slower turnover); details: genetic background: wild type; temperature: 30 C
[2] = test system: Saccharomyces cerevisiae; assay: as above
Method: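 MPS profiling in S. cerevisiae of the tFT-X12 degron library: putative degron peptides plus stable controls, 12 aa, fused to the C-terminus of a sfGFP-mCherry timer. Cells are FACS-sorted into 8 mCherry/sfGFP bins and deep-sequenced. PSI runs from 0 (unstable) to 1 (stable). Backgrounds are wild type, das1Δ and doa10Δ at 30 °C, and wild type, das1Δ, cdc34-1 and cdc53-1 at 37 °C; 2-3 technical replicates each.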

[3] = genetic background: cdc34-1, temperature: 37 C
[4] = genetic background: cdc53-1, temperature: 37 C
[5] = genetic background: das1 deletion, temperature: 30 C
[6] = genetic background: das1 deletion, temperature: 37 C
[7] = genetic background: doa10 deletion, temperature: 30 C
[8] = genetic background: wild type, temperature: 30 C
[9] = genetic background: wild type, temperature: 37 C
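Also: PSI is a weighted mean of sequencing reads over stability bins, variants kept only with over 10 reads, mCherry proximal and sfGFP distal, peptide attached via GGGS linker.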

Sequence	protein stability index [1]	protein stability index [2, 3]	protein stability index [2, 4]	protein stability index [2, 5]	protein stability index [2, 6]	protein stability index [2, 7]	protein stability index [2, 8]	protein stability index [2, 9]
RTKIKKKIMKNI	0.515 ± 0.062	0.621 ± 0.051	0.718 ± 0.032	0.667 ± 0.023	0.716 ± 0.029	0.473 ± 0.052	0.532 ± 0.016	0.651 ± 0.037
RVCCLSFFFVFL	0.517 ± 0.024	0.445 ± 0.022	0.581 ± 0.054	0.398 ± 0.036	0.581 ± 0.014	0.427 ± 0.0094	0.391 ± 0.0052	0.551 ± 0.027
RVCYQIAISLPI	0.495 ± 0.016	0.546 ± 0.0067	0.571 ± 0.027	0.438 ± 0.012	0.552 ± 0.013	0.428 ± 0.022	0.432 ± 0.02	0.542 ± 0.03
RVDVSVLWNRRS	0.4857 ± 0.0047	0.655 ± 0.045	0.75995 ± 0.0007	0.669 ± 0.0086	0.744 ± 0.028	0.284 ± 0.026	0.312 ± 0.038	0.511 ± 0.013
RVEPYDLARRVL	0.726 ± 0.0081	0.725 ± 0.038	0.768 ± 0.028	0.665 ± 0.027	0.759 ± 0.02	0.652 ± 0.025	0.628 ± 0.015	0.71 ± 0.018
RVITRMLLMVIR	0.43 ± 0.036	0.318 ± 0.056	0.365 ± 0.031	0.353 ± 0.029	0.512 ± 0.019	0.493 ± 0.0081	0.359 ± 0.011	0.47449 ± 0.00047
RVPCCLSFVPVC	0.452 ± 0.033	0.508 ± 0.032	0.5131 ± 0.004	0.394 ± 0.026	0.5682 ± 0.0047	0.363 ± 0.0097	0.405 ± 0.027	0.5362 ± 0.0037
RVSECVSVVGWM	0.562 ± 0.14	0.678 ± 0.082	0.723 ± 0.025	0.624 ± 0.019	0.737 ± 0.011	0.619 ± 0.024	0.633 ± 0.0064	0.7147 ± 0.0044
RVYLLGLFVRSG	0.491 ± 0.0076	0.552 ± 0.035	0.61 ± 0.014	0.409 ± 0.04	0.632 ± 0.021	0.325 ± 0.017	0.371 ± 0.031	0.574 ± 0.033
RWCLELLWITSC	0.162 ± 0.015	0.325 ± 0.013	0.451 ± 0.013	0.355 ± 0.03	0.5006 ± 0.005	0.0892 ± 0.0011	0.0824 ± 0.015	0.0678 ± 0.011
RWPLVIRSLIVF	0.2944 ± 0.0027	0.196 ± 0.0088	0.226 ± 0.0098	0.251 ± 0.026	0.325 ± 0.019	0.214 ± 0.00073	0.22 ± 0.017	0.233 ± 0.01
RWRRWCVVLFVV	0.117 ± 0.012	0.197 ± 0.043	0.307 ± 0.021	0.301 ± 0.025	0.456 ± 0.0067	0.0648 ± 0.015	0.0689 ± 0.013	0.0816 ± 0.01
RYVFAFRRNYFC	0.223 ± 0.015	0.448 ± 0.089	0.682 ± 0.0095	0.636 ± 0.018	0.744 ± 0.0096	0.171 ± 0.014	0.174 ± 0.026	0.299 ± 0.038
RYVVVGACIQVV	0.37 ± 0.011	0.421 ± 0.015	0.447 ± 0.0078	0.302 ± 0.024	0.48 ± 0.0021	0.274 ± 0.015	0.314 ± 0.012	0.4511 ± 0.003
SDAIKITFIIHN	0.473 ± 0.062	0.687 ± 0.043	0.632 ± 0.024	0.59 ± 0.012	0.667 ± 0.016	0.425 ± 0.01	0.46 ± 0.009	0.586 ± 0.0065
SFFFLILFLFRD	0.385 ± 0.053	0.372 ± 0.11	0.459 ± 0.04	0.315 ± 0.029	0.484 ± 0.014	0.318 ± 0.019	0.299 ± 0.03	0.466 ± 0.04
SFLACFVLAFFC	0.372 ± 0.014	0.4055 ± 0.00023	0.478 ± 0.018	0.346 ± 0.032	0.475 ± 0.011	0.24 ± 0.0037	0.281 ± 0.017	0.411 ± 0.022
SFPPLPPLPLPP	0.571 ± 0.2	0.64 ± 0.032	0.688 ± 0.0089	0.578 ± 0.0094	0.6778 ± 0.0031	0.594 ± 0.014	0.5917 ± 0.0043	0.6445 ± 0.0054
SFTRYIFFLMFF	0.355 ± 0.015	0.438 ± 0.051	0.475 ± 0.037	0.417 ± 0.023	0.585 ± 0.021	0.4089 ± 0.0013	0.325 ± 0.017	0.456 ± 0.0069
SGPCSPRNLRRL	0.281 ± 0.018	0.699 ± 0.032	0.754 ± 0.012	0.621 ± 0.017	0.736 ± 0.019	0.651 ± 0.015	0.647 ± 0.03	0.719 ± 0.02

Sequence	protein stability index [1]	protein stability index [2, 3]	protein stability index [2, 4]	protein stability index [2, 5]	protein stability index [2, 6]	protein stability index [2, 7]	protein stability index [2, 8]	protein stability index [2, 9]
SGPTIRRRLFVH	0.333 ± 0.0092	0.647 ± 0.021	0.735 ± 0.02	0.621 ± 0.012	0.7286 ± 0.0068	0.148 ± 0.018	0.17 ± 0.043	0.347 ± 0.019
SLIDPLGNLFNS	0.752 ± 0.041	0.71 ± 0.015	0.756 ± 0.038	0.682 ± 0.039	0.756 ± 0.028	0.672 ± 0.024	0.678 ± 0.014	0.72 ± 0.018
SLIFLLVLILSL	0.363 ± 0.074	0.412 ± 0.023	0.51 ± 0.05	0.369 ± 0.038	0.493 ± 0.029	0.364 ± 0.048	0.347 ± 0.036	0.483 ± 0.046
SLLFLVLFFPLV	0.432 ± 0.023	0.4885 ± 0.00069	0.524 ± 0.025	0.42 ± 0.034	0.55 ± 0.029	0.456 ± 0.019	0.43 ± 0.03	0.506 ± 0.0075
SLPCCKVVFCVI	0.4491 ± 0.003	0.5166 ± 0.001	0.554 ± 0.023	0.417 ± 0.038	0.575 ± 0.01	0.332 ± 0.0048	0.355 ± 0.036	0.515 ± 0.015
SLVIRLNIRLIL	0.394 ± 0.011	0.462 ± 0.021	0.435 ± 0.0077	0.423 ± 0.03	0.414 ± 0.034	0.329 ± 0.0061	0.325 ± 0.018	0.361 ± 0.019
SPCSNFLECLSF	0.561 ± 0.11	0.714 ± 0.03	0.7431 ± 0.0018	0.643 ± 0.0079	0.729 ± 0.017	0.626 ± 0.025	0.641 ± 0.017	0.733 ± 0.0071
SPGFVLLAVLVI	0.347 ± 0.086	0.1636 ± 0.0011	0.235 ± 0.0088	0.231 ± 0.029	0.356 ± 0.016	0.194 ± 0.002	0.214 ± 0.025	0.323 ± 0.04
SPGGALVFFVLV	0.467 ± 0.0054	0.552 ± 0.038	0.5998 ± 0.0056	0.44 ± 0.023	0.617 ± 0.0083	0.391 ± 0.012	0.431 ± 0.027	0.606 ± 0.017
SPRSIALLHLFS	0.3 ± 0.044	0.648 ± 0.063	0.708 ± 0.051	0.655 ± 0.02	0.705 ± 0.062	0.154 ± 0.017	0.213 ± 0.031	0.327 ± 0.024
SPSRAGQHLYYP	0.718 ± 0.034	0.684 ± 0.028	0.7347 ± 0.0032	0.64 ± 0.016	0.7334 ± 0.0037	0.636 ± 0.0095	0.662 ± 0.011	0.6953 ± 0.0059
SPTRTCTAIRTP	0.712 ± 0.034	0.689 ± 0.068	0.7392 ± 0.0058	0.666 ± 0.022	0.708 ± 0.0022	0.683 ± 0.057	0.676 ± 0.027	0.671 ± 0.0068
SRFFSSSFYRLC	0.324 ± 0.046	0.675 ± 0.036	0.7576 ± 0.0075	0.661 ± 0.012	0.777 ± 0.018	0.176 ± 0.0056	0.198 ± 0.036	0.485 ± 0.042
SRGGVFYVRIHS	0.455 ± 0.051	0.647 ± 0.043	0.709 ± 0.014	0.628 ± 0.016	0.697 ± 0.018	0.239 ± 0.0035	0.279 ± 0.029	0.4917 ± 0.0011
SRLLGVKVSLVC	0.472 ± 0.032	0.518 ± 0.025	0.567 ± 0.033	0.419 ± 0.031	0.581 ± 0.0085	0.35 ± 0.0097	0.384 ± 0.031	0.5364 ± 0.0038
SRVSEFVIPLGR	0.719 ± 0.033	0.7038 ± 0.0057	0.7389 ± 0.0046	0.622 ± 0.018	0.7555 ± 0.0021	0.644 ± 0.023	0.6473 ± 0.0059	0.71 ± 0.016
SSAFFFLLFSLA	0.366 ± 0.013	0.4227 ± 0.003	0.484 ± 0.006	0.342 ± 0.031	0.511 ± 0.009	0.244 ± 0.0068	0.266 ± 0.037	0.446 ± 0.0051
SSGIGLFVWVYG	0.421 ± 0.014	0.465 ± 0.0058	0.456 ± 0.015	0.282 ± 0.035	0.514 ± 0.013	0.226 ± 0.0051	0.268 ± 0.035	0.5023 ± 0.0012
SSLLLLCCLLVG	0.332 ± 0.01	0.365 ± 0.029	0.427 ± 0.015	0.277 ± 0.032	0.437 ± 0.01	0.248 ± 0.013	0.263 ± 0.03	0.403 ± 0.014
